Test system: MS2 coat protein
Test: apparent KD of MS2 coat protein; designed switch direction (-1 OFF switch, 1 ON switch): -1; higher = weaker reporter binding
Procedure, shortened: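 Three titration conditions were used: no input, 200 uM small-molecule ligand, and an oligonucleotide input. In each, SNAP-549-labelled MS2 coat protein was raised from 0.7 or 1.5 nM, doubling, to 3 µM over designed RNA switches transcribed on Illumina chips by stalled E. coli RNA polymerase. Curve fits of normalised cluster fluorescence gave values whose per-design median over clusters is the apparent KD.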

[1] = Eterna round: R95, input ligand: microRNA oligo, concentration not stated
[2] = Eterna round: R95, input ligand: FMN 200 uM
[3] = Eterna round: R95, input ligand: none
[4] = input ligand: microRNA oligo, concentration not stated

| Sequence | apparent KD of MS2 coat protein [1] | apparent KD of MS2 coat protein [2] | apparent KD of MS2 coat protein [3] | apparent KD of MS2 coat protein (input ligand: FMN 200 uM) | apparent KD of MS2 coat protein (input ligand: none) | apparent KD of MS2 coat protein [4] |
| --- | --- | --- | --- | --- | --- | --- |
| AUCUUGUAAGGAUAUCUUACAAGUGACUUCGGUCACAGUUAAGAGAAGGUACAUGAGGAUCACCCAUGUAUAAC [Ex4-3: 38] (puzzle: Exclusion 4) | 23.8 nM | – | – | – | – | – |
| AUGAGACAUGAGGAUCACCCAUGUGAGGAUAUGUAUGGAUGGUGGAAAGAAUGAGAGAACAGAAGGCACGUAGA [JR_Exclu1_Sub062] (puzzle: Exclusion 1) | 109 nM | 122 nM | 231 nM | – | – | – |
| AUGAGGUUAGGAUAUACAUGAGGAUCACCCAUGUUGAAAGGUUAGAUAGGAGAAGAUAGUAGAAGGAACAAAGA [JR_Exclu3_Sub053] (puzzle: Exclusion 3) | 37.2 nM | 31.8 nM | 43.1 nM | – | – | – |
| AUGAGGUUAGGAUAUACAUGAGGAUCACCCAUGUUGGAGAAGGAAGUGUAAGUAGCGAGUAGAAGGAACGGAGC [JR_Exclu3_Sub060] (puzzle: Exclusion 3) | 51.1 nM | 37.5 nM | 48.4 nM | – | – | – |
| AUGCCACAUGAGGAUCACCCAUGUGAGGAUAUGGCCUGUUUGGCGUGUGCUGGCUCUGUCAGAAGGCGCGUGGG [salish99_ex1_r4_036] (Eterna round: R97, puzzle: Exclusion 1) | – | – | – | 33.9 nM | 25.7 nM | – |
| AUGCCGAGUGUAGGAUAUGGCCCGGAACCACGGCCAGAAGGACAUGAGGAUCACCCAUGUGGCCCGAUAUACACGGUAUCAGAC [Eternabot solution 1] (Eterna round: R96, puzzle: Exclusion NG 1) | – | – | – | 44.7 nM | 24.4 nM | 17.7 nM |
| AUGGGUCCUCACGGAGCUACAUGAGGAUCACCCAUGUGUAUUGAGGAUAUCCACUGCCGAGGGCUGGAGAAGGCAGUGUACUGU [Ex NG3 #92] (Eterna round: R96, puzzle: Exclusion NG 3) | – | – | – | 124 nM | 108 nM | 89.3 nM |
| AUGGUACAUGAGGAUCACCCAUGUUAGGAUAUCGCGUGACCUAAAACUAAGAGACACACGAGAAGGGACGACAU (puzzle: Exclusion 1) | 77.3 nM | – | – | – | – | – |
| AUGGUGUCAGGAUAUCUCAAAGCACAGAAUGAGCGGCUACGGGAGAAGGGACAUGAGGAUCACCCAUGUACUCU [EX4 B.29] (Eterna round: R97, puzzle: Exclusion 4) | – | – | – | 19.9 nM | 18.6 nM | – |
| AUGUCGGCAGGAUAUACAUGAGGAUCACCCAUGUAAAUUUUUCGUUUAACUUGAAUGUGUAGAAGGGCCAUGUA [Ex3 #69] (Eterna round: R97, puzzle: Exclusion 3) | – | – | – | 29.1 nM | 28.9 nM | – |
| AUGUGGGUAUGAAGGUGUAGAUAGAGCGUACGUUAUGGAACAUGAGGAUCACCCAUGUAGCUUUUUGCUCGUCUUAU [JR_SV3TOV2_Sub034] (puzzle: Sensor v3, turn-off variant 2) | 40.9 nM | 36.8 nM | 40.4 nM | – | – | – |
| AUGUUGUCAGGAUAUCUUACAUAACAAUCGUUGUUACCAUUGGAGAAGGGACAUGAGGAUCACCCAUGUUAACC [tap-tap-tappy45] (Eterna round: R97, puzzle: Exclusion 4) | – | – | – | 23.9 nM | 21.5 nM | – |
| AUUAAACAUGUAGGAUAUGCAUAGCAAAGCUAUGCAGAAGGACAUGAGGAUCACCCAUGUAAAAGCGUCUGAGUACAGAUGCAA [Mat - Exclusion NG 1 - Mod of JL - D89] (Eterna round: R96, puzzle: Exclusion NG 1) | – | – | – | 402 nM | 57 nM | 53.2 nM |
| AUUAAAGACCGAGGAUAUCGAGGAAAUACACUGCGAGAAGGCGGGUACUCGGACGAUUCGACAUGAGGAUCACCCAUGUGCACA [Tixequ] (Eterna round: R96, puzzle: Exclusion NG 1) | – | – | – | 26.7 nM | 25.3 nM | 18.9 nM |
| AUUAACUUAGGAUAUACAUGAGGAUCACCCAUGUCCCACCCGUUACCCAUGACCAUAUGUAGAAGGAAGAAGAA [Exy#9] (Eterna round: R97, puzzle: Exclusion 3) | – | – | – | 32.2 nM | 39.5 nM | – |
| AUUAGUAAUAAGGAUAUCACUAGCCUCGGCUAGUGAGAAGGUAUUACAUGAGGAUCACCCAUGUGAUUAAUUAA [E6/5-A2] (Eterna round: R97, puzzle: Exclusion 6) | – | – | – | 463 nM | 79.7 nM | – |

| Sequence | apparent KD of MS2 coat protein [1] | apparent KD of MS2 coat protein [2] | apparent KD of MS2 coat protein [3] | apparent KD of MS2 coat protein (input ligand: FMN 200 uM) | apparent KD of MS2 coat protein (input ligand: none) | apparent KD of MS2 coat protein [4] |
| --- | --- | --- | --- | --- | --- | --- |
| AUUAGUAAUAAGGAUAUCACUAGCUUCGGCUAGUGAGAAGGUAUUACAUGAGGAUCACCCAUGUGAUUAAUUAA [E6/5-A1] (Eterna round: R97, puzzle: Exclusion 6) | – | – | – | 446 nM | 75.3 nM | – |
| AUUAUAAGGAGAGGAUAUCUAAUAAUAUAUAUUAGAGAAGGCUCACAUGAGGAUCACCCAUGUUUUUUUUUUUUUUUUUUUUUU [Default title] (Eterna round: R96, puzzle: Exclusion NG 1) | – | – | – | 89.5 nM | 71.7 nM | 65 nM |
| AUUAUAUAGAGAGGAUAUAGAAUAUUAUUUUAACAUGAGGAUCACCCAUGUAACCUUAUGUGUAGCUAGAAGGCUCAUUUAUUA [Title] (Eterna round: R96, puzzle: Exclusion NG 2) | – | – | – | – | – | 33.9 nM |
| AUUAUAUAGUAAGGAUAUAGAUUAUUAUUUUAACAUGAGGAUCACCCAUGUAGCCUUAUGUAUAACUAGAAGGUACAUUUAUUA [Title] (Eterna round: R96, puzzle: Exclusion NG 2) | – | – | – | – | – | 35.7 nM |
| AUUCCACAUGAGGAUCACCCAUGUCAGGAUAUGCAUAGUCCUGCCACAUAGGACUAGCGCAGAAGGGAUCGGGC [Eternabot (L2) Solution 20] (Eterna round: R97, puzzle: Exclusion 1) | – | – | – | 53.9 nM | 19 nM | – |
| AUUGAUAGCACAGGAUAUUGAGAUUUGAAUUGACAAGAAGGGUGUACAUGAGGAUCACCCAUGUAAUGGUUGAGUGGUUGAUUA [JR_ExcNG1_Sub003] (Eterna round: R96, puzzle: Exclusion NG 1) | – | – | – | 953 nM | 1140 nM | 829 nM |
| AUUGAUGUUGAGGAUAUGCUUUUAUUUAUUAUAGCAGAAGGCGAUACAUGAGGAUCACCCAUGUUCAUGGCUUU [JR_E6_Sub097] (puzzle: Exclusion 6) | 11 nM | – | – | – | – | – |
| AUUUACAAGCUAAGAUCCUACAUGAGGAUCACCCAUGUGGUCCGGUGACGUGAGUCACCGGACUUAGCUCGUCUUGG [salish99_S_TOV1_R5_083] (Eterna round: R97, puzzle: Sensor, turn-off variant 1) | – | – | – | 54.4 nM | 61.4 nM | – |
| AUUUAGAGAGGAUAUAUAAAGUGAAACAUGAGGAUCACCCAUGUAAUUUUAUGGAUGUAAAUAGAAGGCUCAUUUA [Mat - Exclusion 5 - JL mod - D1] (puzzle: Exclusion 5) | 28.9 nM | 23.7 nM | 30.1 nM | – | – | – |
| AUUUAGCAAGUUAGAUCCUACAUGAGGAUCACCCAUGUUGUUCGUCUUAUUUGAAGACAACACAAAAGUGUUGUCUU [Omei Mir OFFv1 B3] (Eterna round: R97, puzzle: Sensor, turn-off variant 1) | – | – | – | 107 nM | 100 nM | – |
| AUUUUAACAUAGGAUAUCGAAUUUAUUAUUUAACGAGAAGGAUGAACAUGAGGAUCACCCAUGUGGUAUCAUGG [JL-ex6-3.02] (puzzle: Exclusion 6) | 204 nM | – | – | – | – | – |
| CAAACCAGAGGAUAUGCGCAUAGAUCAGACUUUGUUUCUUAACAUGAGGAUCACCCAUGUAGAAGGCUGUAAAA [Ex2 #73] (Eterna round: R97, puzzle: Exclusion 2) | – | – | – | 18.4 nM | 17.6 nM | – |
| CAAAUCUGAGGAUAUCGAUUUUUGUACAUGAGGAUCACCCAUGUCCUUUUUAUUAAAUCCCGAGAAGGCAGUGUAU [JR_E5_Sub096] (puzzle: Exclusion 5) | 24.3 nM | – | – | – | – | – |
| CAAAUGGUUUAAGGAUAUUACAUGAGGAUCACCCAUGUUAUCGGGAUGCUUCUCUUAAAAUACGGUAAGAAGGUAGACCUAAUC [Ceveso] (Eterna round: R96, puzzle: Exclusion NG 2) | – | – | – | 451 nM | 84.9 nM | 91 nM |
| CAAUAGAAAGGAUAUACAGUAGGCGUUGUGCUCGAGCACUCACAUGAGGAUCACCCAUGUAGAAGGUUCAGUUA [EX2 C.18] (Eterna round: R97, puzzle: Exclusion 2) | – | – | – | 27.9 nM | 17.7 nM | – |
| CAAUUAAUUAAUUAAUAAUACAUGAGGAUCACCCAUGUAGAUCCUACAUACAAGCUUUGUAGCUCGUCUUAUAAUUA [Stov1/3-A3] (Eterna round: R97, puzzle: Sensor, turn-off variant 1) | – | – | – | 368 nM | 417 nM | – |
